Test results as given in patent US20130115220A1 (DAINIPPON SUMITOMO PHARMA, published 2013).

T1: keto acyl synthase (KS) domain of FAS labeled with Flag at the N-terminal (UniProt P19096 1-406, limits assumed)
T1 construct: domain: keto acyl synthase (KS); Subcloned into pFLAG-CMV2 from the full-length FAS cDNA
T1 sequence (looked up): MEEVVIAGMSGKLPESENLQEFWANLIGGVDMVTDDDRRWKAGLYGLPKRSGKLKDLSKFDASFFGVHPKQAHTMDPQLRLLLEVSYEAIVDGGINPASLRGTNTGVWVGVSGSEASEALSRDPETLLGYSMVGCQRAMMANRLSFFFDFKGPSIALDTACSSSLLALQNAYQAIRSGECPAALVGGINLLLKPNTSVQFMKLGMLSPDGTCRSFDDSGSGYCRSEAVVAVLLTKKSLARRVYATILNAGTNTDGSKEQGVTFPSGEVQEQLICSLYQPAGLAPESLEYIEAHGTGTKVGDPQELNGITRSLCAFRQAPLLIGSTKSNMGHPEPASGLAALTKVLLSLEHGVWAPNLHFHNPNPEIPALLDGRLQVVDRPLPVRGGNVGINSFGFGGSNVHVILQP

T2: malonyl/acetyl transferase (MAT) domain of FAS labeled with Flag at the N-terminal (UniProt P19096 429-817, limits assumed)
T2 construct: domain: malonyl/acetyl transferase (MAT); Subcloned into pFLAG-CMV2 from the full-length FAS cDNA
T2 sequence (looked up): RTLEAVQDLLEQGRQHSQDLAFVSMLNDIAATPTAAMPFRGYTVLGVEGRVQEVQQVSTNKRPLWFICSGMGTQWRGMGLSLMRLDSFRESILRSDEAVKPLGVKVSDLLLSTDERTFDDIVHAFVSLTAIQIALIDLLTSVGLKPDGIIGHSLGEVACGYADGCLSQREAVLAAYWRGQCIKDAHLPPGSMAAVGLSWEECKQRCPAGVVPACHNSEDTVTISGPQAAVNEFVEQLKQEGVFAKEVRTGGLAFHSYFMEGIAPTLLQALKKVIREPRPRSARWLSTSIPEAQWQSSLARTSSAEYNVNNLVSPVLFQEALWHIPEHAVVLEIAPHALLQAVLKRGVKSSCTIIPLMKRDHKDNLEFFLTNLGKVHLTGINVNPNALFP

B1: recombinant AIM protein (rAIM) of mouse labeled with HA-tag (ligand)
chain: ESPTKVQLVGGAHRCEGRVEVEHNGQWGTVCDDGWDRRDVAVVCRELNCGAVIQTPRGASYQPPASEQRVLIQGVDCNGTEDTLAQCELNYYVFDCSHEEDAGAQCENPDSDLLFIPEDVRLVDGPGHCQGRVEVLHQSQWSTVCKAGWNLQVSKVVCRQLGCGRALLTYGSCNKNTQGKGPIWMGKMSCSGQEANLRSCLLSRLENNCTHGEDTWMECEDPFELKLVGGDTPCSGRLEVLHKGSWGSVCDDNWGEKEDQVVCKQLGCGKSLHPSPKTRKIYGPGAGRIWLDDVNCSGKEQSLEFCRHRLWGYHDCTHKEDVEVICTDFDV
notes: also called rAIM-HA; AIM-HA; not shown: HA-tag
B2: acylcarrier protein (ACP) domain of FAS labeled with Flag at the N-terminal (enzyme, UniProt P19096 2112-2192, looked up, not shown: small tags and cut ends)
chain: HGDGDTQRDLVKAVAHILGIRDLAGINLDSTLADLGLDSLMGVEVRQILEREHDLVLPMREVRQLTLRKLQEMSSKTDSAT
notes: domain: acylcarrier protein (ACP); Subcloned into pFLAG-CMV2 from the full-length FAS cDNA
B3: keto reductase (KR) domain of FAS labeled with Flag at the N-terminal (enzyme, UniProt P19096 1857-2111, looked up, not shown: small tags and cut ends)
chain: VLPGAQPTLISAISKTFCPAHKSYIITGGLGGFGLELARWLVLRGAQRLVLTSRSGIRTGYQAKHIREWRRQGIQVLVSTSNVSSLEGARALIAEATKLGPVGGVFNLAMVLRDAMLENQTPELFQDVNKPKYNGTLNLDRATREACPELDYFVAFSSVSCGRGNAGQTNYGFANSTMERICEQRRHDGLPGLAVQWGAIGDVGIVLEAMGTNDTVIGGTLPQRISSCMEVLDLFLNQPHAVLSSFVLAEKKAVA
notes: domain: keto reductase (KR); Subcloned into pFLAG-CMV2 from the full-length FAS cDNA

What was measured:
Experiment in all cases: co-immunoprecipitation of Flag-tagged FAS domains with AIM-HA in HEK293T cells
[1] = target: T1, keto acyl synthase (KS) domain of FAS …
[2] = target: T2, malonyl/acetyl transferase (MAT) domain …
[3] = target: B1

Row | binding result [1] | binding result [2] | binding result [3] | Binder
1 | no binding | no binding | – | B1
2 | – | – | no binding | B2
3 | – | – | no binding | B3
